Source: PMC6624267

Target: CARD11^8–172 (human) (UniProt Q9BXL7)
Assay: SEC-MALS; CARD11^8–172 alone; measured 36.5 kDa against 39.4 kDa expected for a dimer

stoichiometry N: 2
Substance: CARD11^8–172 (from UniProt Q9BXL7 8-172) (domain or fragment)
